Data taken from patent publication US20140274782A1, “AFFINITY REAGENTS AND METHODS FOR DETECTION, PURIFICATION, AND PROTEOMIC ANALYSIS OF METHYLATED PROTEINS” (The Board of Trustees of the Leland Stanford Junior …, priority 2013, published 2014).

T1: G9a and GLP (Homo sapiens, UniProt Q96KQ7+Q9H9B1)
T1 sequence (Q96KQ7 2-1210 limits assumed): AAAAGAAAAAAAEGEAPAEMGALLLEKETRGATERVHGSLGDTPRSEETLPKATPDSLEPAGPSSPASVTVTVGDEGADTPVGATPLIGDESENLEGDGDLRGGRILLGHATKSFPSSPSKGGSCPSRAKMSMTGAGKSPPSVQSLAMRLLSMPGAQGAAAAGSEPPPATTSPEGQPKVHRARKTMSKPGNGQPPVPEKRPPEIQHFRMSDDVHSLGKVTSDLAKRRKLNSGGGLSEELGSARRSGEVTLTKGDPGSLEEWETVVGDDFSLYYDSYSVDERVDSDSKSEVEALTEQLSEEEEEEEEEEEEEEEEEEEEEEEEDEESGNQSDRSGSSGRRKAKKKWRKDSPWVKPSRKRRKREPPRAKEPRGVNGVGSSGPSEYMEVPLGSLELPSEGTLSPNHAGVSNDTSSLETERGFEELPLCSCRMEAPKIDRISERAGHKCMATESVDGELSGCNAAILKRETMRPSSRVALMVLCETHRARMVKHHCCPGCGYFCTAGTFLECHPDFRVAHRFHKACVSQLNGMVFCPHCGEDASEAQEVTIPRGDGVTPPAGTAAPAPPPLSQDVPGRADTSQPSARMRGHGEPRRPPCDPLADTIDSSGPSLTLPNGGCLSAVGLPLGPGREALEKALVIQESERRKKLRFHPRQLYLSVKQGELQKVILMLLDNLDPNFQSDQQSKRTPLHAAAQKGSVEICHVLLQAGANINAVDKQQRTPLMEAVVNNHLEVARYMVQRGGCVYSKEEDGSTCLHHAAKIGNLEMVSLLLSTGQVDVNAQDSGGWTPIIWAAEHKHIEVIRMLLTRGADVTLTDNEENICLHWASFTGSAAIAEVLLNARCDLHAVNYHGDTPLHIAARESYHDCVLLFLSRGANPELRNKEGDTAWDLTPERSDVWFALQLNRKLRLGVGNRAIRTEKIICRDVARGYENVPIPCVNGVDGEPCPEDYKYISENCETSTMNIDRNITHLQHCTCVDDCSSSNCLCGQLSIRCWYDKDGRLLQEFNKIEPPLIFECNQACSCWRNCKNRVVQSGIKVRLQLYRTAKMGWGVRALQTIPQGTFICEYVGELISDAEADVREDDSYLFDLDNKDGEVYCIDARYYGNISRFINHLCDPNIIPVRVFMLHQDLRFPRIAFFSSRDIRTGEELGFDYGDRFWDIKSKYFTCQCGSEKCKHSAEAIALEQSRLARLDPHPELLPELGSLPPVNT
T1 sequence (Q9H9B1 2-1298 limits assumed): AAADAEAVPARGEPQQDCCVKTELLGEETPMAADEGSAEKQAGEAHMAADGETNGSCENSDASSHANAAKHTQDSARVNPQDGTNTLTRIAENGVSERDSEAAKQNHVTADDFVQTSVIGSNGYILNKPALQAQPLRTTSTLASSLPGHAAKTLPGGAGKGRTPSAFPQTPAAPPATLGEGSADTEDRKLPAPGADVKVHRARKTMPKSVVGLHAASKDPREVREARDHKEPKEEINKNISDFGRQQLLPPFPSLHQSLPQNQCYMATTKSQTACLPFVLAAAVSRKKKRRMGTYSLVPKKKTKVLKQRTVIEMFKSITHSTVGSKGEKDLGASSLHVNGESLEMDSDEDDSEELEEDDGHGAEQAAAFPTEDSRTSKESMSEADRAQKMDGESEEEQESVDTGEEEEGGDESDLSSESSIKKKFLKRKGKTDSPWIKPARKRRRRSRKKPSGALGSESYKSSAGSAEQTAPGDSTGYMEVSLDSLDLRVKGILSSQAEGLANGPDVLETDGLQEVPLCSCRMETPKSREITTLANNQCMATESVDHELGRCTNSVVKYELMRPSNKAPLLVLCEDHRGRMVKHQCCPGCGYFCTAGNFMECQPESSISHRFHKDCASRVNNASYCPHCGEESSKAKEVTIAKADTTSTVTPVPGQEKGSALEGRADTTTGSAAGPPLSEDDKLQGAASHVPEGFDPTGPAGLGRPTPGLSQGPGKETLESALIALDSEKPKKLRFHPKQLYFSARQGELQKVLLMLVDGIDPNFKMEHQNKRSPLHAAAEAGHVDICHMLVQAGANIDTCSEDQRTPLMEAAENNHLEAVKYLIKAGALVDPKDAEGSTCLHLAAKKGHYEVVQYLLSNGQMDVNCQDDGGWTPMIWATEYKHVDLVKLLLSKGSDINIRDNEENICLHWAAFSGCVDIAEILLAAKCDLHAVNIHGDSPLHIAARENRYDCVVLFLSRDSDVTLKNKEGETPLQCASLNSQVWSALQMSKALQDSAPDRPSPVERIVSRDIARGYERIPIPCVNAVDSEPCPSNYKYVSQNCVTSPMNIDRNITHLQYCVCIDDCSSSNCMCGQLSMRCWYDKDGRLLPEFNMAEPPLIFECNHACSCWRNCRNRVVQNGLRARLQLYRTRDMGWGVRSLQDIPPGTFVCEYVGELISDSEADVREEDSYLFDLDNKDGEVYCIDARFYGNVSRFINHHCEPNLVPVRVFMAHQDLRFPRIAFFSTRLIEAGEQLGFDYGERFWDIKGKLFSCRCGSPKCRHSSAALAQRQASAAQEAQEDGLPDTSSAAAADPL

B1: SF3B3 (protein, UniProt Q15393 1-1217, looked up)
Splicing factor 3B subunit 3: MFLYNLTLQRATGISFAIHGNFSGTKQQEIVVSRGKILELLRPDPNTGKVHTLLTVEVFGVIRSLMAFRLTGGTKDYIVVGSDSGRIVILEYQPSKNMFEKIHQETFGKSGCRRIVPGQFLAVDPKGRAVMISAIEKQKLVYILNRDAAARLTISSPLEAHKANTLVYHVVGVDVGFENPMFACLEMDYEEADNDPTGEAAANTQQTLTFYELDLGLNHVVRKYSEPLEEHGNFLITVPGGSDGPSGVLICSENYITYKNFGDQPDIRCPIPRRRNDLDDPERGMIFVCSATHKTKSMFFFLAQTEQGDIFKITLETDEDMVTEIRLKYFDTVPVAAAMCVLKTGFLFVASEFGNHYLYQIAHLGDDDEEPEFSSAMPLEEGDTFFFQPRPLKNLVLVDELDSLSPILFCQIADLANEDTPQLYVACGRGPRSSLRVLRHGLEVSEMAVSELPGNPNAVWTVRRHIEDEFDAYIIVSFVNATLVLSIGETVEEVTDSGFLGTTPTLSCSLLGDDALVQVYPDGIRHIRADKRVNEWKTPGKKTIVKCAVNQRQVVIALTGGELVYFEMDPSGQLNEYTERKEMSADVVCMSLANVPPGEQRSRFLAVGLVDNTVRIISLDPSDCLQPLSMQALPAQPESLCIVEMGGTEKQDELGERGSIGFLYLNIGLQNGVLLRTVLDPVTGDLSDTRTRYLGSRPVKLFRVRMQGQEAVLAMSSRSWLSYSYQSRFHLTPLSYETLEFASGFASEQCPEGIVAISTNTLRILALEKLGAVFNQVAFPLQYTPRKFVIHPESNNLIIIETDHNAYTEATKAQRKQQMAEEMVEAAGEDERELAAEMAAAFLNENLPESIFGAPKAGNGQWASVIRVMNPIQGNTLDLVQLEQNEAAFSVAVCRFSNTGEDWYVLVGVAKDLILNPRSVAGGFVYTYKLVNNGEKLEFLHKTPVEEVPAAIAPFQGRVLIGVGKLLRVYDLGKKKLLRKCENKHIANYISGIQTIGHRVIVSDVQESFIWVRYKRNENQLIIFADDTYPRWVTTASLLDYDTVAGADKFGNICVVRLPPNTNDEVDEDPTGNKALWDRGLLNGASQKAEVIMNYHVGETVLSLQKTTLIPGGSESLVYTTLSGGIGILVPFTSHEDHDFFQHVEMHLRSEHPPLCGRDHLSFRSYYFPVKNVIDGDLCEQFNSMEPNKQKNVSEELDRTPPEVSKKLEDIRTRYAF
B2: SRP14 (protein, UniProt P37108 2-136, looked up)
Signal recognition particle …: VLLESEQFLTELTRLFQKCRTSGSVYITLKKYDGRTKPIPKKGTVEGFEPADNKCLLRATDGKKKISTVVSSKEVNKFQMAYSNLLRANMDGLKKRDKKNKTKKTKAAAAAAAAAPAAAATAPTTAATTAATAAQ
B3: PRDX2 (protein, UniProt P32119 2-198, looked up)
Peroxiredoxin-2: ASGNARIGKPAPDFKATAVVDGAFKEVKLSDYKGKYVVLFFYPLDFTFVCPTEIIAFSNRAEDFRKLGCEVLGVSVDSQFTHLAWINTPRKEGGLGPLNIPLLADVTRRLSEDYGVLKTDEGIAYRGLFIIDGKGVLRQITVNDLPVGRSVDEALRLVQAFQYTDEHGEVCPAGWKPGSDTIKPNVDDSKEYFSKHN
B4: LSM12 (protein, UniProt Q3MHD2 2-195, looked up)
Protein LSM12: AAPPGEYFSVGSQVSCRTCQEQRLQGEVVAFDYQSKMLALKCPSSSGKPNHADILLINLQYVSEVEIINDRTETPPPLASLNVSKLASKARTEKEEKLSQAYAISAGVSLEGQQLFQTIHKTIKDCKWQEKNIVVMEEVVITPPYQVENCKGKEGSALSHVRKIVEKHFRDVESQKILQRSQAQQPQKEAALSS
B5: CALD1 (protein, UniProt Q05682 1-793, looked up)
Caldesmon: MDDFERRRELRRQKREEMRLEAERIAYQRNDDDEEEAARERRRRARQERLRQKQEEESLGQVTDQVEVNAQNSVPDEEAKTTTTNTQVEGDDEAAFLERLARREERRQKRLQEALERQKEFDPTITDASLSLPSRRMQNDTAENETTEKEEKSESRQERYEIEETETVTKSYQKNDWRDAEENKKEDKEKEEEEEEKPKRGSIGENQVEVMVEEKTTESQEETVVMSLKNGQISSEEPKQEEEREQGSDEISHHEKMEEEDKERAEAERARLEAEERERIKAEQDKKIADERARIEAEEKAAAQERERREAEERERMREEEKRAAEERQRIKEEEKRAAEERQRIKEEEKRAAEERQRIKEEEKRAAEERQRARAEEEEKAKVEEQKRNKQLEEKKHAMQETKIKGEKVEQKIEGKWVNEKKAQEDKLQTAVLKKQGEEKGTKVQAKREKLQEDKPTFKKEEIKDEKIKKDKEPKEEVKSFMDRKKGFTEVKSQNGEFMTHKLKHTENTFSRPGGRASVDTKEAEGAPQVEAGKRLEELRRRRGETESEEFEKLKQKQQEAALELEELKKKREERRKVLEEEEQRRKQEEADRKLREEEEKRRLKEEIERRRAEAAEKRQKMPEDGLSDDKKPFKCFTPKGSSLKIEERAEFLNKSVQKSSGVKSTHQAAIVSKIDSRLEQYTSAIEGTKSAKPTKPAASDLPVPAEGVRNIKSMWEKGNVFSSPTAAGTPNKETAGLKVGVSSRINEWLTKTPDGNKSPAPKPSDLRPGDVSSKRNLWEKQSVDKVTSPTKV

Each molecule was assayed on 3×MBT domain of L3MBTL1 (assay: Triple SILAC pull-down, 3xMBT/3xMBTD355N ratio (cytoplasmic, nuclear and chromatin fractions of 293T cells)). Conditions: SILAC ratio, pull-down 3xMBT vs 3xMBTD355N; experiment with UNC0638 in heavy SILAC media.
Assay type: binding, human
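For 3xMBT/D355N UNC Heavy in this document: proteins quantified with MaxQuant, requiring at least two unique peptides and quantification in both label directions, normalized to the mean of proteins from a digested loading control.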
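For 3xMBT/D355N UNC Light in this document: proteins quantified with MaxQuant, requiring at least two unique peptides and quantification in both label directions, normalized to the mean of proteins from a digested loading control.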
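For Candidate G9a/GLP target in this document: mass spectrometry (Q-Exactive) SILAC quantitation, DMSO/UNC0638 ratio computed after subtracting 3×MBTD355N mutant pull-down background, only proteins with at least twofold 3×MBT over mutant signal considered.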
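For Relative to UNC0638 Average in this document: mass spectrometry (Q-Exactive) SILAC quantitation, DMSO/UNC0638 ratio computed after subtracting 3×MBTD355N mutant pull-down background, only proteins with at least twofold 3×MBT over mutant signal considered.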
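For Relative to UNC0638 UNC Heavy in this document: mass spectrometry (Q-Exactive) SILAC quantitation, DMSO/UNC0638 ratio computed after subtracting 3×MBTD355N mutant pull-down background, only proteins with at least twofold 3×MBT over mutant signal considered.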
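For Relative to UNC0638 UNC Light in this document: mass spectrometry (Q-Exactive) SILAC quantitation, DMSO/UNC0638 ratio computed after subtracting 3×MBTD355N mutant pull-down background, only proteins with at least twofold 3×MBT over mutant signal considered.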

| Molecule | 3xMBT/D355N UNC Heavy |
| --- | --- |
| B1 | 2.48 log base 2 |
| B2 | 2.23 log base 2 |
| B3 | 2.19 log base 2 |
| B4 | 2.07 log base 2 |
| B5 | 3.53 log base 2 |

Same assay, conditions: SILAC ratio, pull-down 3xMBT vs 3xMBTD355N; experiment with UNC0638 in light SILAC media

| Molecule | 3xMBT/D355N UNC Light |
| --- | --- |
| B1 | 2.08 log base 2 |
| B2 | 2.96 log base 2 |
| B3 | 4.01 log base 2 |
| B4 | 3.81 log base 2 |
| B5 | 3.50 log base 2 |

Each molecule was assayed against T1, G9a and GLP (assay: Triple SILAC pull-down after UNC0638 treatment of 293T cells, DMSO/UNC0638 ratio of protein captured by 3×MBT). Conditions: SILAC ratio DMSO/UNC0638 of protein pulled down with 3xMBT; UNC0638 in heavy SILAC media.
Assay type: cell-based
Parameters: cells were treated for 24 hours with UNC0638 at 2.5 μM or DMSO vehicle control; endogenous in cells; host or cells: HEK 293T

| Molecule | Relative to UNC0638 UNC Heavy |
| --- | --- |
| B1 | 0.06 log base 2 |
| B2 | 0.30 log base 2 |
| B3 | 0.43 log base 2 |
| B4 | 0.03 log base 2 |
| B5 | 0.29 log base 2 |

Same assay, conditions: SILAC ratio DMSO/UNC0638 of protein pulled down with 3xMBT; UNC0638 in light SILAC media

| Molecule | Relative to UNC0638 UNC Light |
| --- | --- |
| B1 | 0.31 log base 2 |
| B2 | 0.07 log base 2 |
| B3 | 1.96 log base 2 |
| B4 | 0.34 log base 2 |
| B5 | 0.09 log base 2 |

Same assay, conditions: average of UNC Light and UNC Heavy experiments

| Molecule | Relative to UNC0638 Average |
| --- | --- |
| B1 | 0.18 log base 2 |
| B2 | 0.19 log base 2 |
| B3 | 1.19 log base 2 |
| B4 | 0.18 log base 2 |
| B5 | 0.19 log base 2 |

Same assay, conditions: reduced association with 3xMBT after UNC0638 treatment

| Molecule | Candidate G9a/GLP target |
| --- | --- |
| B3 | ✓ |
